The values below come from paper PMC11246235 (Cell, 2024).

Like-named read-outs stand apart in the source and are kept apart here.

First the molecules themselves.
B1: POT1(ESDL) (natural protein, human, UniProt Q9NUX5 1-634, looked up)
chain: MSLVPATNYIYTPLNQLKGGTIVNVYGVVKFFKPPYLSKGTDYCSVVTIVDQTNVKLTCLLFSGNYEALPIIYKNGDIVRFHRLKIQVYKKETQGITSSGFASLTFEGTLGAPIIPRTSSKYFNFTTEDHKMVEALRVWASTHMSPSWTLLKLCDVQPMQYFDLTCQLLGKAEVDGASFLLKVWDGTRTPFPSWRVLIQDLVLEGDLSHIHRLQNLTIDILVYDNHVHVARSLKVGSFLRIYSLHTKLQSMNSENQTMLSLEFHLHGGTSYGRGIRVLPESNSDVDQLKKDLESANLTANQHSDVICQSEPDDSFPSSGSESDLVSLYEVERCQQLSATILTDHQYLERTPLCAILKQKAPQQYRIRAKLRSYKPRRLFQSVKLHCPKCHLLQEVPHEGDLDIIFQDGATKTPDVKLQNTSLYDSKIWTTKNQKGRKVAVHFVKNNGILPLSNECLLLIEGGTLSEICKLSNKFNSVIPVRSGHEDLELLDLSAPFLIQGTIHHYGCKQCSSLRSIQNLNSLVDKTSWIPSSVAEALGIVPLQYVFVMTFTLDDGTGVLEAYLMDSDKFFQIPASEVLMDDDLQKSVDMIMDMFCPPGIKIDAYPWLECFIKSYNVTNGTDNQICYQIFDTTVAEDVI
modifications: phosphorylated in insect cells (sites not determined)
B2: Ten1 (natural protein, human, UniProt Q86WV5 1-123, looked up)
chain: MMLPKPGTYYLPWEVSAGQVPDGSTLRTFGRLCLYDMIQSRVTLMAQHGSDQHQVLVCTKLVEPFHAQVGSLYIVLGELQHQQDRGSVVKARVLTCVEGMNLPLLEQAIREQRLYKQERGGSQ
B3: Stn1 (natural protein, human, UniProt Q9H668 1-368, looked up)
chain: MQPGSSRCEEETPSLLWGLDPVFLAFAKLYIRDILDMKESRQVPGVFLYNGHPIKQVDVLGTVIGVRERDAFYSYGVDDSTGVINCICWKKLNTESVSAAPSAARELSLTSQLKKLQETIEQKTKIEIGDTIRVRGSIRTYREEREIHATTYYKVDDPVWNIQIARMLELPTIYRKVYDQPFHSSALEKEEALSNPGALDLPSLTSLLSEKAKEFLMENRVQSFYQQELEMVESLLSLANQPVIHSASSDQVNFKKDTTSKAIHSIFKNAIQLLQEKGLVFQKDDGFDNLYYVTREDKDLHRKIHRIIQQDCQKPNHMEKGCHFLHILACARLSIRPGLSEAVLQQVLELLEDQSDIVSTMEHYYTAF

Holding throughout (test): cryo-EM structure
The target of experiment [1] is T1, Ctc1 (His6-MBP-Ctc1) (human, UniProt Q2NKJ3 1-1217).
T1 sequence (looked up): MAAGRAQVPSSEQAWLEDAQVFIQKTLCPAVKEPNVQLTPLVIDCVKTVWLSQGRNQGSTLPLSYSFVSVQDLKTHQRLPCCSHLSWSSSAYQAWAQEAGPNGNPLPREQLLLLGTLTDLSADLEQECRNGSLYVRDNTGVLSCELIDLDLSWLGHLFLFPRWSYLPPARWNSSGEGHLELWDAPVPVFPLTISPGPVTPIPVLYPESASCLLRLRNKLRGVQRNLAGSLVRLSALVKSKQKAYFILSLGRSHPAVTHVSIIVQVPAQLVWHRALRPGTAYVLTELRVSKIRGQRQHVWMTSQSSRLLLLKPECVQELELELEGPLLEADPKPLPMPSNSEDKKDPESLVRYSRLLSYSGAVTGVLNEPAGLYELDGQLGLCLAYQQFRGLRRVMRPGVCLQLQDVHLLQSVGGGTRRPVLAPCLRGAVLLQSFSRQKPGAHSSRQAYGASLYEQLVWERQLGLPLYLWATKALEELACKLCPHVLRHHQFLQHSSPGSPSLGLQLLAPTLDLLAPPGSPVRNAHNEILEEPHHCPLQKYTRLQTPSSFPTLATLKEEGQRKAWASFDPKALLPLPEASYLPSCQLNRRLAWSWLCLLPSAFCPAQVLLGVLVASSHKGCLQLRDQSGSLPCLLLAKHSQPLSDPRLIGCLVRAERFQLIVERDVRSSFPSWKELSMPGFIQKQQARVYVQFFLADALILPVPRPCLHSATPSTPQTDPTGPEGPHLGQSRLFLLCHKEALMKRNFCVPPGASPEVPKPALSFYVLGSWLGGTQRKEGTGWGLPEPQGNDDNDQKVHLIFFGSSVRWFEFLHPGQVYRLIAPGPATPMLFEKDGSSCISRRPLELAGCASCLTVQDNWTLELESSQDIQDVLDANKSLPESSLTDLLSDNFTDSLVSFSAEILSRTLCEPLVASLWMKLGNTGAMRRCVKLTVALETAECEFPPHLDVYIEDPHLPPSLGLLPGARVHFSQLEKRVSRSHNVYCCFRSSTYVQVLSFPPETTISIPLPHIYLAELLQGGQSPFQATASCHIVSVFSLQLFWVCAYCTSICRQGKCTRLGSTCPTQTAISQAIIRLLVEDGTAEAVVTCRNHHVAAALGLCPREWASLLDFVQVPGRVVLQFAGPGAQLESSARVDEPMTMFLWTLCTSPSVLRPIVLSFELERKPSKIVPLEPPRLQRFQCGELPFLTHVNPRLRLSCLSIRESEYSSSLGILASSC

The experiment “Stn1” has as its target B3.
The target in experiment [2] is T1, Ctc1 (His6-MBP-Ctc1). This is another data set of the same source.

As to B1, the binding result in the experiment with Ctc1 (His6-MBP-Ctc1) [1] is “binds”.

Consider B2, for which, in the experiment with Stn1, the binding result was “binds”.

On to B3, for which the binding result with Ctc1 (His6-MBP-Ctc1) [2] was “binds”.
